Assay results as given in patent US20260365696A1, “INHIBITORS OF PTP1B / NCK1 INTERACTION AND METHODS OF MAKING AND USING SAME” (Radella Pharmaceuticals LLC, priority 2023, published 2026).
Like-named read-outs stand apart in the source and are kept apart here. Each block holds one molecule with its values, some of them ahead of it. No end group written: not given here.

Legend:
SH3-2 domain of NCK1 = target: T1, SH3-2 domain of NCK1 (Homo sapiens, UniProt P16333); assay: Isothermal titration calorimetry (ITC) binding to NCK1 SH3-2 domain
T1 construct: To amplify the NCK1 SH3-2 domain, the primers; 10xHis tag with TEV site (vector pSF-OXB20-NH2-10HIS) (N, cleaved yes); made in house; host or cells: E. coli C43(DE3)
How it was run: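 Measured at 25 °C, pH 8.0 (10 mM sodium buffer, sodium chloride), by calorimetric titration of 3-7.5 mM peptide into 0.125-0.3 mM recombinant NCK1 SH3-2 domain with His tag removed, using 20 injections. Affinities are means of three experiments, fitted with stoichiometry 0.8-1.2.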

db/db mice = assay: db/db genetic mouse model of diabetes and obesity; type: in vivo
Text: Animals: All animals were housed and tested following European (Directive on the Protection of Animals used for Scientific Purposes, 2010/63/EU) and UK Home Office regulations. Experiments were approved by the University Ethics Board and carried out in accordance with the Animal (Scientific Procedures) Act 1986 and following ARRIVE guidelines. Db/db male mice (~4 weeks old) were purchased from Jackson, USA. All mice received standard mouse chow diet and had ad libitum access to food and water and were kept in a 12 h light/dark cycle.
Treatments: Mice were assigned and counterbalanced according to their body weights in to the following groups: control PBS (n=10); MD18 at 15 mg/kg (n=7), 30 mg/kg (n=8), or 45 mg/kg (n=7); or MD20 at 15 mg/kg (n=9), 30 mg/kg (n=10) or 45 mg/kg (n=7). MD18 and MD20 were administered once daily via subcutaneous (SC) injection for 41 days, whereas control mice received a daily SC injection of vehicle (PBS). MD18 and MD20 were kept in −20 °C and dissolved in sterile phosphate buffered saline (PBS).
Body weights and body mass composition: Body weights were recorded twice weekly during the study, and fat mass and lean mass composition was analysed using an EchoMRI scanner (EchoMedical Systems, Houston, TX, U.S.A.).
Metabolic measurements: All animals were five-hour fasted before obtaining basal glucose measurements and GTT, ITT, and corresponding treatments were administered 1 hour before glucose measurements. Tail blood glucose was measured using AlphaTRAK 2 glucose strips and glucometer (Abbot, UK), or blood was collected and glucose assay (AB65333, Abcam) was performed where readings were too high to be recorded via glucometer. Human Actrapid Insulin (NovaNordisk) at 1 IU/kg dose was administered during ITT.
Serum and liver assays: Trunk-derived blood was collected from 5 h-fasted mice into serum separator microtubes and kept at −80 °C. Serum was used for insulin (#EZRMI-13K, Merck) and leptin (#90030, Crystal Chem) analyses.
Statistical analyses: Data were reported as means±SEM and analysed using one- or two-way ANOVA with Bonferroni post hoc tests, as appropriate. GraphPad Prism (V8, GraphPad Software, Inc., San Diego, California, USA) was used for statistical analyses. P-values <0.05 were considered significant.

NCK1 SH3-2 domain [1] = target: T2, NCK1 SH3-2 domain (human); assay: ITC
T2 chain: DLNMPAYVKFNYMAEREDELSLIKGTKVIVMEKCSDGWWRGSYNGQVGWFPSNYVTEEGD

NCK1 SH3-2 domain [2] = target: T2, NCK1 SH3-2 domain; assay: ITC
NCK1 SH3-2 domain [3] = target: T2, NCK1 SH3-2 domain; assay: ITC
NCK1 SH3-2 domain [4] = target: T2, NCK1 SH3-2 domain; assay: ITC
NCK1 SH3-2 domain [5] = target: T2, NCK1 SH3-2 domain; assay: ITC
NCK1 SH3-2 domain [6] = target: T2, NCK1 SH3-2 domain; assay: ITC
NCK1 SH3-2 domain [7] = target: T2, NCK1 SH3-2 domain; assay: ITC

Molecule: Ac-PPRPPKR-NH2 [MD18, Ac-PPRPPKR-NH2]
- Kd (SH3-2 domain of NCK1; Peptide truncation analysis, ITC, 25 °C, pH 8.0): ≤ 300 µM
- Kd (SH3-2 domain of NCK1; ability to bind SH3-2 domain of NCK1, stated in text): < 193 µM
- leptin levels (db/db mice; 15 mg/kg SC daily, about 6 weeks, vs control): A trend for decreased leptin levels
- glucose clearance during GTT (db/db mice; 15 mg/kg SC daily, week 4, vs control): better glucose clearance at 15-minutes post-glucose injection
- fat mass gain (db/db mice; 15 mg/kg and 30 mg/kg SC daily): inhibited fat mass gain
- body weight gain (db/db mice; 15 mg/kg and 30 mg/kg SC daily, vs control): significantly inhibited body weight gain
- fasted insulin levels (db/db mice; 30 mg/kg SC daily, about 6 weeks, vs control): A trend for lower fasted insulin levels
- basal glucose levels (db/db mice; 5-hour-fasted, SC daily, vs vehicle): No significant differences
- efficacy with respect to inhibiting body weight, inhibiting fat mass gain, and improving glucose clearance during GTT (db/db mice; SC daily, compared to MD20): better efficacy as compared to MD20 treatment
- insulin tolerance test (ITT) (db/db mice; SC daily, week 6, 1 IU/kg insulin, vs control): did not detect any significant differences

Molecule: Ac-PPEHIP-NH2 [MH040]
- Kd (NCK1 SH3-2 domain [4]): > 1000 µM

Molecule: Ac-PPRPPK-NH2 [MH035]
- Kd (NCK1 SH3-2 domain [4]): > 1000 µM

Molecule: Ac-PRPPAR-NH2 [MH012]
- Kd (NCK1 SH3-2 domain [5]): < 600 µM

Molecule: Ac-PPPPRP-NH2 [MH037]
- Kd (NCK1 SH3-2 domain [4]): > 1000 µM

Molecule: Ac-PAPPKR-NH2 [MH009]
- Kd (NCK1 SH3-2 domain [5]): < 300 µM

Molecule: EPRPPKR-NH2 (not fully specified (residue 1)) [MH043]
- Kd (NCK1 SH3-2 domain [6]): < 300 µM

Molecule: Ac-PPRPPKR-NHEt [MH046]
- Kd (NCK1 SH3-2 domain [6]): < 300 µM

Molecule: Ac-PPPRPP-NH2 [MH036]
- Kd (NCK1 SH3-2 domain [4]): > 1000 µM

Molecule: Ac-PRPPKA-NH2 [MH013]
- Kd (NCK1 SH3-2 domain [5]): > 1000 µM

Molecule: Ac-PRPAKR-NH2 [MH011]
- Kd (NCK1 SH3-2 domain [5]): > 1000 µM

Molecule: Ac-PPRFPKR-NH2 [MH067]
- Kd (NCK1 SH3-2 domain [2]): > 600 µM

Molecule: Ac-EHIPPP-NH2 [MH039]
- Kd (NCK1 SH3-2 domain [4]): > 1000 µM

Molecule: Ac-PPRPPKRIL-NH2 [MH064]
- Kd (NCK1 SH3-2 domain [3]): < 300 µM

Molecule: Ac-ARPPKR-NH2 [MH008]
- Kd (NCK1 SH3-2 domain [5]): > 1000 µM

Molecule: Ac-IPPPPR-NH2 [MH038]
- Kd (NCK1 SH3-2 domain [4]): > 1000 µM

Molecule: Ac-PRAPKR-NH2 [MH010]
- Kd (NCK1 SH3-2 domain [5]): > 1000 µM

Molecule: Ac-PPPRPPK-NH2 [MH041]
- Kd (NCK1 SH3-2 domain [4]): > 1000 µM

Molecule: Ac-PPRRPKR-NH2 [MH062]
- Kd (NCK1 SH3-2 domain [2]): < 600 µM

Molecule: Ac-PPRPPKRILE-NH2 [MH065]
- Kd (NCK1 SH3-2 domain [3]): < 300 µM

Molecule: Ac-PPRPPKRI-NH2 [MH063]
- Kd (NCK1 SH3-2 domain [3]): < 300 µM
- Kd (NCK1 SH3-2 domain [7]): < 300 µM

Next, values leading:

- binding result (NCK1 SH3-2 domain [1]): no binding
Molecule: Ac-PPRDPKR-NH2 [MH128]

- Kd (NCK1 SH3-2 domain [2]): < 600 µM
Molecule: Ac-PPRKPKR-NH2 [MH104]

- Kd (NCK1 SH3-2 domain [3]): < 300 µM
Molecule: Ac-PPPEHIPPPPRPPKRILEPH-NH2 [MH089]

- binding result (NCK1 SH3-2 domain [1]): no binding
Molecule: Ac-PPRCPKR-NH2 [MH129]

- Kd (NCK1 SH3-2 domain [3]): < 300 µM
Molecule: SVQDQWKELSHEDLEPPPEHIPPPPRPPKR-NH2 (not fully specified (N-terminus)) [MH136]

- binding result (NCK1 SH3-2 domain [1]): no binding
Molecule: Ac-PPRMPKR-NH2 [MH111]

- binding result (NCK1 SH3-2 domain [1]): no binding
Molecule: Ac-PPRGPKR-NH2 [MH093]

- Kd (NCK1 SH3-2 domain [2]): < 600 µM
Molecule: Ac-PPRYPKR-NH2 [MH121]

- Kd (NCK1 SH3-2 domain [2]): < 300 µM
Molecule: Ac-PPRIPKR-NH2 [MH097]

- Kd (NCK1 SH3-2 domain [3]): < 300 µM
Molecule: Ac-HEDLEPPPEHIPPPPRPPKR-NH2 [MH090]

- Kd (NCK1 SH3-2 domain [3]): < 300 µM
Molecule: Ac-PPPEHIPPPPRPPKRILE-NH2 [MH077]

- Kd (NCK1 SH3-2 domain [3]): < 300 µM
Molecule: Ac-PPPEHIPPPPRPPKRILEPHNGKCREFFPN-NH2 [MH137]

- binding result (NCK1 SH3-2 domain [1]): no binding
Molecule: Ac-PPRSPKR-NH2 [MH108]

- binding result (NCK1 SH3-2 domain [1]): no binding
Molecule: Ac-PPRNPKR-NH2 [MH127]

- Kd (NCK1 SH3-2 domain [3]): < 300 µM
Molecule: Ac-PPPEHIPPPPRPPKRILEPHNGKCR-NH2 [MH134]

- binding result (NCK1 SH3-2 domain [1]): no binding
Molecule: Ac-PPREPKR-NH2 [MH130]

- Kd (NCK1 SH3-2 domain [6]): > 1000 µM
Molecule: Ac-PPRPPKK-NH2 [MH076]

- binding result (NCK1 SH3-2 domain [1]): no binding
Molecule: Ac-PPRHPKR-NH2 [MH132]

- Kd (NCK1 SH3-2 domain [3]): < 300 µM
Molecule: Ac-WKELSHEDLEPPPEHIPPPPRPPKR-NH2 [MH135]

- Kd (NCK1 SH3-2 domain [6]): < 300 µM
Molecule: H-PPRPPKR-NH2 [MH075]

- Kd (NCK1 SH3-2 domain [2]): < 600 µM
Molecule: Ac-PPRTPKR-NH2 [MH115]

- binding result (NCK1 SH3-2 domain [1]): no binding
Molecule: Ac-PPRQPKR-NH2 [MH131]

- binding result (NCK1 SH3-2 domain [1]): no binding
Molecule: Ac-PPRWPKR-NH2 [MH118]

- Kd (NCK1 SH3-2 domain [2]): < 600 µM
Molecule: Ac-PPRLPKR-NH2 [MH101]

- Kd (NCK1 SH3-2 domain [2]): < 300 µM
Molecule: Ac-PPRVPKR-NH2 [MH125]
